{"source": "patent US20210130436A1", "about": "(published 2021)", "binders": {"B1": {"name": "variant CD80 IgV-Fc L85Q (Fc fusion, not shown: small tags and cut ends; a dimerising Fc or GST)", "chain": "VIHVTKEVKEVATLSCGHNVSVEELAQTRIYWQKEKKMVLTMMSGDMNIWPEYKNRTIFDITNNLSIVILALRPSDEGTYECVVQKYEKDAFKREHLAEVTLSVKAD"}, "B2": {"name": "variant CD80 IgV-Fc M47L/L85Q (Fc fusion, not shown: small tags and cut ends; a dimerising Fc or GST)", "chain": "B1 chain with M47L"}, "B3": {"name": "variant CD80 IgV-Fc D46V/M47L (Fc fusion, not shown: small tags and cut ends; a dimerising Fc or GST)", "chain": "B1 chain with D46V, M47L, Q85L"}, "B4": {"name": "variant CD80 IgV-Fc D46V/M47L/V68M/L85Q (Fc fusion, not shown: small tags and cut ends; a dimerising Fc or GST)", "chain": "B1 chain with D46V, M47L, V68M"}, "B5": {"name": "variant CD80 IgV-Fc D46V/V68M/L85Q (Fc fusion, not shown: small tags and cut ends; a dimerising Fc or GST)", "chain": "B1 chain with D46V, V68M"}, "B6": {"name": "variant CD80 IgV-Fc E35D/D46V (Fc fusion, not shown: small tags and cut ends; a dimerising Fc or GST)", "chain": "B1 chain with E35D, D46V, Q85L"}, "B7": {"name": "variant CD80 IgV-Fc E35D/D46V/M47L (Fc fusion, not shown: small tags and cut ends; a dimerising Fc or GST)", "chain": "B1 chain with E35D, D46V, M47L, Q85L"}, "B8": {"name": "variant CD80 IgV-Fc E35D/D46V/M47L/V68M (Fc fusion, not shown: small tags and cut ends; a dimerising Fc or GST)", "chain": "B1 chain with E35D, D46V, M47L, V68M, Q85L"}, "B9": {"name": "variant CD80 IgV-Fc E35D/D46V/V68M (Fc fusion, not shown: small tags and cut ends; a dimerising Fc or GST)", "chain": "B1 chain with E35D, D46V, V68M, Q85L"}, "B10": {"name": "variant CD80 IgV-Fc E35D/D46V/V68M/L85Q (Fc fusion, not shown: small tags and cut ends; a dimerising Fc or GST)", "chain": "B1 chain with E35D, D46V, V68M"}, "B11": {"name": "variant CD155 IgV-Fc L104E (Fc fusion, not shown: a dimerising Fc or GST)", "chain": "WPPPGTGDVVVQAPTQVPGFLGDSVTLPCYLQVPNMEVTHVSQLTWARHGESGSMAVFHQTQGPSYSESKRLEFVAARLGAELRNASLRMFGLRVEDEGNYTCEFVTFPQGSRSVDIWLRVL"}, "B12": {"name": "variant CD155 IgV-Fc L104Q (Fc fusion, not shown: a dimerising Fc or GST)", "chain": "B11 chain with E104Q"}, "B13": {"name": "variant CD155 IgV-Fc S42C/S52L (Fc fusion, not shown: a dimerising Fc or GST)", "chain": "B11 chain with S42C, S52L, E104L"}, "B14": {"name": "variant CD155 IgV-Fc S42G (Fc fusion, not shown: a dimerising Fc or GST)", "chain": "B11 chain with S42G, E104L"}, "B15": {"name": "variant CD155 IgV-Fc S52M/V57L (Fc fusion, not shown: a dimerising Fc or GST)", "chain": "B11 chain with S52M, V57L, E104L"}, "B16": {"name": "variant CD80 IgV-Fc E35D/M47I/K54R/L85E (Fc fusion, not shown: a dimerising Fc or GST)", "chain": "B1 chain with E35D, M47I, K54R, Q85E"}, "B17": {"name": "variant CD80 IgV-Fc Q27H/E35D/M47L/L85Q/R94Q/E95K (Fc fusion, not shown: a dimerising Fc or GST)", "chain": "B1 chain with Q27H, E35D, M47L, R94Q, E95K"}, "B18": {"name": "variant CD80 IgV-Fc Q33K/E35D/M47V/K89E/K93R (Fc fusion, not shown: a dimerising Fc or GST)", "chain": "B1 chain with Q33K, E35D, M47V, Q85L, K89E, K93R"}, "B19": {"name": "variant CD80 IgV-Fc S15P/Q33L/E35D/M47L/L85Q (Fc fusion, not shown: a dimerising Fc or GST)", "chain": "B1 chain with S15P, Q33L, E35D, M47L"}}, "note": "Positions count from the first letter of the chain named. In names and notes the source's numbering stands."}
{"target": "T1, CD28 endogenously expressed on Jurkat/IL2 reporter cells (human, UniProt P10747 19-220)", "T1 construct": "also called Jurkats (CD28)", "test": "flow cytometry, Jurkat cells (CD28)", "units": {"MFI at 33.3 nM": "MFI"}}
{"binder": "B1", "MFI at 33.3 nM": 35}
{"binder": "B2", "MFI at 33.3 nM": 88.1}
{"target": "T2, human CTLA4 (CTLA-4), full-length, on CHO cells (human, UniProt P16410 36-223)", "T2 construct": "also called huCTLA4", "T2 sequence (P16410 36-223)": "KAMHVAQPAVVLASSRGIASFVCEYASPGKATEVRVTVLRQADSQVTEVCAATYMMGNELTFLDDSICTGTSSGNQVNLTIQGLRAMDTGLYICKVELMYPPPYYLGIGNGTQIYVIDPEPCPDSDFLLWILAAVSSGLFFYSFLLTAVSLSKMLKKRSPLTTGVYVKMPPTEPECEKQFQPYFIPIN", "test": "flow cytometry, CHO cells stably expressing CTLA4", "units": {"MFI at 33.3 nM": "MFI"}}
{"binder": "B3", "MFI at 33.3 nM": 49700}
{"binder": "B4", "MFI at 33.3 nM": 32500}
{"binder": "B5", "MFI at 33.3 nM": 7570}
{"binder": "B6", "MFI at 33.3 nM": 50100}
{"binder": "B7", "MFI at 33.3 nM": 45000}
{"binder": "B8", "MFI at 33.3 nM": 34300}
{"binder": "B9", "MFI at 33.3 nM": 31200}
{"binder": "B10", "MFI at 33.3 nM": 32200}
{"binder": "B1", "MFI at 33.3 nM": 3000}
{"target": "T3, human PD-L1, full-length, on CHO cells (human, UniProt Q9NZQ7 19-290)", "T3 construct": "also called huPD-L1; CD274", "T3 sequence (Q9NZQ7 19-290)": "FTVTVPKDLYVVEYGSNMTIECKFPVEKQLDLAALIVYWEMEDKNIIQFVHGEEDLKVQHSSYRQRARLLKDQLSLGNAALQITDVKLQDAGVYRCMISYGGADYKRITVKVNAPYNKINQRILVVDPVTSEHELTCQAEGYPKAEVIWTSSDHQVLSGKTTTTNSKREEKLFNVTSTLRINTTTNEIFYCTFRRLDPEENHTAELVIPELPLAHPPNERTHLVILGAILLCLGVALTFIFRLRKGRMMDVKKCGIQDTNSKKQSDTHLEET", "test": "flow cytometry, CHO cells stably expressing PD-L1", "units": {"MFI at 33.3 nM": "MFI"}}
{"binder": "B3", "MFI at 33.3 nM": 3900}
{"binder": "B4", "MFI at 33.3 nM": 29700}
{"binder": "B5", "MFI at 33.3 nM": 4170}
{"binder": "B6", "MFI at 33.3 nM": 3970}
{"binder": "B7", "MFI at 33.3 nM": 7990}
{"binder": "B8", "MFI at 33.3 nM": 29300}
{"binder": "B9", "MFI at 33.3 nM": 26100}
{"binder": "B10", "MFI at 33.3 nM": 23600}
{"binder": "B1", "MFI at 33.3 nM": 97}
{"binder": "B2", "MFI at 33.3 nM": 5800}
{"target": "T4, CD96 (UniProt P40200 22-585, limits assumed)", "T4 construct": "whole, on cells", "T4 sequence (looked up)": "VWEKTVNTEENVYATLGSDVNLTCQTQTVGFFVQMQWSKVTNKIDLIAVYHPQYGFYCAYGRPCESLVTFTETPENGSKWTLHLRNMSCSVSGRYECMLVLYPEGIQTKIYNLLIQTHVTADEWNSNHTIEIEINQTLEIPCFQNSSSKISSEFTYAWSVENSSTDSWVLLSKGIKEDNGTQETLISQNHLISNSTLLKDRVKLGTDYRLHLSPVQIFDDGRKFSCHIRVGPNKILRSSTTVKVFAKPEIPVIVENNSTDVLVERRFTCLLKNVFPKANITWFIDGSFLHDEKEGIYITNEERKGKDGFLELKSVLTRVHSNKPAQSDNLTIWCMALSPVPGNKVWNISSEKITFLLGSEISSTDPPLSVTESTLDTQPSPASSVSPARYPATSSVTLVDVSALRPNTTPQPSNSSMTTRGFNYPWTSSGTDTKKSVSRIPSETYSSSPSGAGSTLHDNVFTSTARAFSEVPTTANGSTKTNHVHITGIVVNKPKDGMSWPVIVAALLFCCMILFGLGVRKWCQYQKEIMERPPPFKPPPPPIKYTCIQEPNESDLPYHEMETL", "test": "flow cytometry, Fc fusion at 100 nM, CD96-transfected cells", "units": {"MFI at 100 nM": "MFI"}}
{"binder": "B11", "MFI at 100 nM": 1560}
{"binder": "B12", "MFI at 100 nM": 1540}
{"binder": "B13", "MFI at 100 nM": 1480}
{"binder": "B14", "MFI at 100 nM": 1700}
{"binder": "B15", "MFI at 100 nM": 1860}
{"target": "T5, CD226 (Homo sapiens (Human), UniProt Q15762 19-336)", "T5 sequence": "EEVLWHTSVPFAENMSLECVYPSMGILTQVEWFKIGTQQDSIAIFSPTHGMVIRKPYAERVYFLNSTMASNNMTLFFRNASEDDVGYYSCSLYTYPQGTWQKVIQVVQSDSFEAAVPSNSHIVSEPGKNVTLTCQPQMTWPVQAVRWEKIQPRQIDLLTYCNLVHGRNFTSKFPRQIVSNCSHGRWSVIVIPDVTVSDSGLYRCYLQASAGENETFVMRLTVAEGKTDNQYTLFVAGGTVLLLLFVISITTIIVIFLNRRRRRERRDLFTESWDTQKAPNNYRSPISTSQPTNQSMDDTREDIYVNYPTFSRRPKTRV", "test": "flow cytometry, Fc fusion at 100 nM, CD226-transfected cells", "units": {"MFI at 100 nM": "MFI"}}
{"binder": "B12", "MFI at 100 nM": 3790}
{"binder": "B13", "MFI at 100 nM": 2150}
{"binder": "B14", "MFI at 100 nM": 2450}
{"binder": "B15", "MFI at 100 nM": 2430}
{"target": "T6, human PD-L1 (full-length, expressed on CHO cells) (human, UniProt Q9NZQ7 19-290)", "T6 construct": "also called huPD-L1; CD274", "T6 sequence (Q9NZQ7 19-290)": "as the sequence (Q9NZQ7 19-290) above", "test": "flow cytometry, CHO cells expressing huPD-L1, PE anti-human Fc", "units": {"MFI at 33.3 nM": "MFI"}}
{"binder": "B16", "MFI at 33.3 nM": 36900}
{"binder": "B17", "MFI at 33.3 nM": 36100}
{"binder": "B18", "MFI at 33.3 nM": 39100}
{"target": "T7, CD28 (endogenously expressed on Jurkat/IL2 reporter cells) (human, UniProt P10747 19-220)", "T7 construct": "Endogenous CD28 of Jurkat cells; also called human CD28", "test": "flow cytometry, Jurkat/IL2 reporter cells (endogenous CD28), PE anti-human Fc", "units": {"MFI at 33.3 nM": "MFI"}}
{"binder": "B17", "MFI at 33.3 nM": 282}
{"binder": "B18", "MFI at 33.3 nM": 276}
{"binder": "B19", "MFI at 33.3 nM": 266}
